Here are results for 19 molecules from PMC314469, “Protein Interaction Networks by Proteome Peptide Scanning” (PLoS Biology, 2004).

The labels stand for the following.
T1: Yhr016c SH3 (YSC84_YEAST), P32793
T1 chain: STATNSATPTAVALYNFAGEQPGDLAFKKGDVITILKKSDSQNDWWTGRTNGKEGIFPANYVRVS

T2: Yfr024 SH3 (LSB3_YEAST), P43603
T2 chain: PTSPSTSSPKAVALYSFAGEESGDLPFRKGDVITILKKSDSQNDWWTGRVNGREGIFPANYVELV

T3: Boi1 SH3 (BOI1_YEAST), P38041
T3 chain: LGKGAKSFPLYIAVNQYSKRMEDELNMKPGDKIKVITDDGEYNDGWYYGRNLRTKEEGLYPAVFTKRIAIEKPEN

T4: Boi2 SH3 (BOI2_YEAST), P39969
T4 chain: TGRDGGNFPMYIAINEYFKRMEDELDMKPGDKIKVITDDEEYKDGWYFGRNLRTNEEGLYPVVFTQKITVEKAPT

T5: Rvs167 SH3 (RV167_YEAST), P39743
T5 chain: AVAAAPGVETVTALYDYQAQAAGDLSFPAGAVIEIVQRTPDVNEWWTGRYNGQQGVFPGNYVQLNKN

For the first experiment, the target named is T1, Yhr016c SH3 (YSC84_YEAST), P32793. Briefly: SPOT array.
For QGYPRQPQRPQRYH [YDR171W 27-40], the normalised SPOT signal, Boehringer light units (BLU); mean over the file's lines of this peptide was determined as 8440.
Same read-out and setting: under PYPPSLPSRDLYEV [YLL028W 113-126] stands 16000; under PTTPGYPSKDSDTE [YJR126C 341-354], 25.
On the same count and under the same terms, the value for QIFPKKPLRRTVMS [YDR182W 166-179] was 8570; that for QEKPLTPLKYTKLI [YHL025W 160-173] was 7.1; that for PVYPSLPERSKVIL [YGR099W 44-57] was 21100.
On to QDSPDMPEKESVYV [YER179W 310-323], for which the normalised SPOT signal, Boehringer light units (BLU); mean over the file's lines of this peptide is 0.
Same read-out and setting: the value for QGPPNLPARDKSLV [YLL023C 9-22] was 64000.
On the same count and under the same terms, under QAHPPKPKRREGDI [YKR050W 402-415] stands 740; under QETPIIPKRIIHYS [YLR030W 11-24], 7820; under PTPPSPPAKRIPRS [YPR171W 305-318], 0.
PVDPTTPVKLGPGI [YOL142W 12-25] had a normalised SPOT signal, Boehringer light units (BLU); mean over the file's lines of this peptide of 179.
QGLPASPSRAALRY [YBR038W 55-68]: the normalised SPOT signal, Boehringer light units (BLU); mean over the file's lines of this peptide came out at 104.
Same read-out and setting: the value for QGEPLDPKRPSTAS [YGL027C 141-154] was 418.
Same read-out and setting: the value for PTAPNSPIKLGRRK [YIL112W 218-231] was 175.
For the molecule PVGPKVPAKEPSPK [YEL043W 874-887], the normalised SPOT signal, Boehringer light units (BLU); mean over the file's lines of this peptide turned out to be 48.6.
In turn, QGQPLPPPRGQVIL [YBR108W 287-300] yielded a normalised SPOT signal, Boehringer light units (BLU); mean over the file's lines of this peptide of 16000.
Take QFVPIAPQRLNMIF [YMR247C 1015-1028]: the normalised SPOT signal, Boehringer light units (BLU); mean over the file's lines of this peptide is 601.
As to QAAPRNPNKDATIA [YOR363C 59-72], the normalised SPOT signal, Boehringer light units (BLU); mean over the file's lines of this peptide amounted to 46.6.

The next experiment concerns the target T2, Yfr024 SH3 (LSB3_YEAST), P43603. The experiment is described as follows: SPOT array.
QGYPRQPQRPQRYH [YDR171W 27-40]: the normalised SPOT signal, Boehringer light units (BLU); mean over the file's lines of this peptide is 13200.
Same read-out and setting: under PYPPSLPSRDLYEV [YLL028W 113-126] stands 8330.
Same read-out and setting: under PTTPGYPSKDSDTE [YJR126C 341-354] stands 139; under QIFPKKPLRRTVMS [YDR182W 166-179], 35400; under QEKPLTPLKYTKLI [YHL025W 160-173], 929.
Same read-out and setting: under PVYPSLPERSKVIL [YGR099W 44-57] stands 24100; under QDSPDMPEKESVYV [YER179W 310-323], 26.9.
QGPPNLPARDKSLV [YLL023C 9-22] yielded a normalised SPOT signal, Boehringer light units (BLU); mean over the file's lines of this peptide of 36100.
In turn, QAHPPKPKRREGDI [YKR050W 402-415] had a normalised SPOT signal, Boehringer light units (BLU); mean over the file's lines of this peptide of 9260.
Still for that read-out and setting: under QETPIIPKRIIHYS [YLR030W 11-24] stands 15200; under PTPPSPPAKRIPRS [YPR171W 305-318], 8640; under PVDPTTPVKLGPGI [YOL142W 12-25], -0.
The same measure, in the same setting: under QGLPASPSRAALRY [YBR038W 55-68] stands 522.
Still for that read-out and setting: the value for QGEPLDPKRPSTAS [YGL027C 141-154] was 440; that for PTAPNSPIKLGRRK [YIL112W 218-231] was 547; that for PVGPKVPAKEPSPK [YEL043W 874-887] was 381.
With QGQPLPPPRGQVIL [YBR108W 287-300], the normalised SPOT signal, Boehringer light units (BLU); mean over the file's lines of this peptide is 22700.
On the same count and under the same terms, the value for QFVPIAPQRLNMIF [YMR247C 1015-1028] was 1580.
In turn, QAAPRNPNKDATIA [YOR363C 59-72] had a normalised SPOT signal, Boehringer light units (BLU); mean over the file's lines of this peptide of 8.2.

Another experiment deals with T3, Boi1 SH3 (BOI1_YEAST), P38041. Briefly: SPOT array.
QGYPRQPQRPQRYH [YDR171W 27-40] displayed a normalised SPOT signal, Boehringer light units (BLU); mean over the file's lines of this peptide of 7410.
As to PYPPSLPSRDLYEV [YLL028W 113-126], the normalised SPOT signal, Boehringer light units (BLU); mean over the file's lines of this peptide was 36.2.
Consider PTTPGYPSKDSDTE [YJR126C 341-354], for which the normalised SPOT signal, Boehringer light units (BLU); mean over the file's lines of this peptide stood at 40.3.
The same measure, in the same setting: the value for QIFPKKPLRRTVMS [YDR182W 166-179] was 231; that for QEKPLTPLKYTKLI [YHL025W 160-173] was 78; that for PVYPSLPERSKVIL [YGR099W 44-57] was 40.1.
In the case of QDSPDMPEKESVYV [YER179W 310-323], the normalised SPOT signal, Boehringer light units (BLU); mean over the file's lines of this peptide worked out at 51.6.
For QGPPNLPARDKSLV [YLL023C 9-22], the normalised SPOT signal, Boehringer light units (BLU); mean over the file's lines of this peptide came to 63.2.
The same measure, in the same setting: the value for QAHPPKPKRREGDI [YKR050W 402-415] was 133; that for QETPIIPKRIIHYS [YLR030W 11-24] was 4800.
Same read-out and setting: under PTPPSPPAKRIPRS [YPR171W 305-318] stands 347.
PVDPTTPVKLGPGI [YOL142W 12-25] gave a normalised SPOT signal, Boehringer light units (BLU); mean over the file's lines of this peptide of 40.5.
The same measure, in the same setting: the value for QGLPASPSRAALRY [YBR038W 55-68] was 1720; that for QGEPLDPKRPSTAS [YGL027C 141-154] was 51.9; that for PTAPNSPIKLGRRK [YIL112W 218-231] was 135.
Same read-out and setting: the value for PVGPKVPAKEPSPK [YEL043W 874-887] was 88; that for QGQPLPPPRGQVIL [YBR108W 287-300] was 231.
Same read-out and setting: under QFVPIAPQRLNMIF [YMR247C 1015-1028] stands 427; under QAAPRNPNKDATIA [YOR363C 59-72], 78.3.

The target in the next experiment is T4, Boi2 SH3 (BOI2_YEAST), P39969. The experiment is described as follows: SPOT array.
For the molecule QGYPRQPQRPQRYH [YDR171W 27-40], the normalised SPOT signal, Boehringer light units (BLU); mean over the file's lines of this peptide stood at 377.
PYPPSLPSRDLYEV [YLL028W 113-126]: the normalised SPOT signal, Boehringer light units (BLU); mean over the file's lines of this peptide came out at 31.1.
The same measure, in the same setting: the value for PTTPGYPSKDSDTE [YJR126C 341-354] was 27.1; that for QIFPKKPLRRTVMS [YDR182W 166-179] was 282; that for QEKPLTPLKYTKLI [YHL025W 160-173] was 28.6.
The same measure, in the same setting: under PVYPSLPERSKVIL [YGR099W 44-57] stands 34.
On to QDSPDMPEKESVYV [YER179W 310-323], for which the normalised SPOT signal, Boehringer light units (BLU); mean over the file's lines of this peptide came out at 42.6.
The same measure, in the same setting: under QGPPNLPARDKSLV [YLL023C 9-22] stands 23; under QAHPPKPKRREGDI [YKR050W 402-415], 38.2.
As to QETPIIPKRIIHYS [YLR030W 11-24], the normalised SPOT signal, Boehringer light units (BLU); mean over the file's lines of this peptide turned out to be 246.
PTPPSPPAKRIPRS [YPR171W 305-318] returned a normalised SPOT signal, Boehringer light units (BLU); mean over the file's lines of this peptide of 134.
For PVDPTTPVKLGPGI [YOL142W 12-25], the normalised SPOT signal, Boehringer light units (BLU); mean over the file's lines of this peptide came to 21.4.
Same read-out and setting: the value for QGLPASPSRAALRY [YBR038W 55-68] was 57.8.
On the same count and under the same terms, the value for QGEPLDPKRPSTAS [YGL027C 141-154] was 23.1; that for PTAPNSPIKLGRRK [YIL112W 218-231] was 68.2; that for PVGPKVPAKEPSPK [YEL043W 874-887] was 5.8.
Still for that read-out and setting: under QGQPLPPPRGQVIL [YBR108W 287-300] stands 83.2.
QFVPIAPQRLNMIF [YMR247C 1015-1028] returned a normalised SPOT signal, Boehringer light units (BLU); mean over the file's lines of this peptide of 68.9.
For the molecule QAAPRNPNKDATIA [YOR363C 59-72], the normalised SPOT signal, Boehringer light units (BLU); mean over the file's lines of this peptide was 10.5.

In a further experiment the target is T5, Rvs167 SH3 (RV167_YEAST), P39743. The experiment is described as follows: SPOT array.
The molecule QGYPRQPQRPQRYH [YDR171W 27-40] returned a normalised SPOT signal, Boehringer light units (BLU); mean over the file's lines of this peptide of 620.
With PYPPSLPSRDLYEV [YLL028W 113-126], the normalised SPOT signal, Boehringer light units (BLU); mean over the file's lines of this peptide came out at 944.
On the same count and under the same terms, the value for PTTPGYPSKDSDTE [YJR126C 341-354] was 45.8.
Take QIFPKKPLRRTVMS [YDR182W 166-179]: the normalised SPOT signal, Boehringer light units (BLU); mean over the file's lines of this peptide turned out to be 737.
Same read-out and setting: the value for QEKPLTPLKYTKLI [YHL025W 160-173] was 99.4.
PVYPSLPERSKVIL [YGR099W 44-57] returned a normalised SPOT signal, Boehringer light units (BLU); mean over the file's lines of this peptide of 4000.
For QDSPDMPEKESVYV [YER179W 310-323], the normalised SPOT signal, Boehringer light units (BLU); mean over the file's lines of this peptide was determined as 4.7.
Still for that read-out and setting: under QGPPNLPARDKSLV [YLL023C 9-22] stands 18500.
Still for that read-out and setting: the value for QAHPPKPKRREGDI [YKR050W 402-415] was 41.1; that for QETPIIPKRIIHYS [YLR030W 11-24] was 625.
On to PTPPSPPAKRIPRS [YPR171W 305-318], for which the normalised SPOT signal, Boehringer light units (BLU); mean over the file's lines of this peptide came out at 59.3.
On to PVDPTTPVKLGPGI [YOL142W 12-25], for which the normalised SPOT signal, Boehringer light units (BLU); mean over the file's lines of this peptide turned out to be 19.
Same read-out and setting: under QGLPASPSRAALRY [YBR038W 55-68] stands 62.5.
Still for that read-out and setting: the value for QGEPLDPKRPSTAS [YGL027C 141-154] was 45.6; that for PTAPNSPIKLGRRK [YIL112W 218-231] was 11.6.
With PVGPKVPAKEPSPK [YEL043W 874-887], the normalised SPOT signal, Boehringer light units (BLU); mean over the file's lines of this peptide came out at 30.7.
On the same count and under the same terms, under QGQPLPPPRGQVIL [YBR108W 287-300] stands 8250; under QFVPIAPQRLNMIF [YMR247C 1015-1028], 90.
Still for that read-out and setting: under QAAPRNPNKDATIA [YOR363C 59-72] stands 40.7.
